Reference: PMC9279676, “ERK2 MAP kinase regulates SUFU binding by multisite phosphorylation of GLI1” (Life Science Alliance, 2022)
Substitutions are numbered along the chain they refer to.

Key:
[1] = biological target: T1, full-length GLI1^G122A,H123A, 35S-radiolabeled (human, UniProt P08151-1 1-1106, G122A | H123A, [35S]-methionine label); assay: pull-down; purified GST-SUFU, 1.25-80 nM, captured on glutathione-Sepharose beads; ∼1 pmol 35S-GLI1 (1-232 or full length) in 200 μl; 15 min at 30°C, then 1 h at room temperature; Binding Buffer + 1 mg/ml BSA; bound GLI1 quantified by SDS-PAGE and Phosphorimager; Kd from binding isotherms; settings: one partner purified
T1 construct: human GLI1, full length (1,106 residues); also called G122A, H123A double substitution; source: in vitro transcription/translation, partially purified by ammonium sulfate precipitation
T1 sequence (looked up): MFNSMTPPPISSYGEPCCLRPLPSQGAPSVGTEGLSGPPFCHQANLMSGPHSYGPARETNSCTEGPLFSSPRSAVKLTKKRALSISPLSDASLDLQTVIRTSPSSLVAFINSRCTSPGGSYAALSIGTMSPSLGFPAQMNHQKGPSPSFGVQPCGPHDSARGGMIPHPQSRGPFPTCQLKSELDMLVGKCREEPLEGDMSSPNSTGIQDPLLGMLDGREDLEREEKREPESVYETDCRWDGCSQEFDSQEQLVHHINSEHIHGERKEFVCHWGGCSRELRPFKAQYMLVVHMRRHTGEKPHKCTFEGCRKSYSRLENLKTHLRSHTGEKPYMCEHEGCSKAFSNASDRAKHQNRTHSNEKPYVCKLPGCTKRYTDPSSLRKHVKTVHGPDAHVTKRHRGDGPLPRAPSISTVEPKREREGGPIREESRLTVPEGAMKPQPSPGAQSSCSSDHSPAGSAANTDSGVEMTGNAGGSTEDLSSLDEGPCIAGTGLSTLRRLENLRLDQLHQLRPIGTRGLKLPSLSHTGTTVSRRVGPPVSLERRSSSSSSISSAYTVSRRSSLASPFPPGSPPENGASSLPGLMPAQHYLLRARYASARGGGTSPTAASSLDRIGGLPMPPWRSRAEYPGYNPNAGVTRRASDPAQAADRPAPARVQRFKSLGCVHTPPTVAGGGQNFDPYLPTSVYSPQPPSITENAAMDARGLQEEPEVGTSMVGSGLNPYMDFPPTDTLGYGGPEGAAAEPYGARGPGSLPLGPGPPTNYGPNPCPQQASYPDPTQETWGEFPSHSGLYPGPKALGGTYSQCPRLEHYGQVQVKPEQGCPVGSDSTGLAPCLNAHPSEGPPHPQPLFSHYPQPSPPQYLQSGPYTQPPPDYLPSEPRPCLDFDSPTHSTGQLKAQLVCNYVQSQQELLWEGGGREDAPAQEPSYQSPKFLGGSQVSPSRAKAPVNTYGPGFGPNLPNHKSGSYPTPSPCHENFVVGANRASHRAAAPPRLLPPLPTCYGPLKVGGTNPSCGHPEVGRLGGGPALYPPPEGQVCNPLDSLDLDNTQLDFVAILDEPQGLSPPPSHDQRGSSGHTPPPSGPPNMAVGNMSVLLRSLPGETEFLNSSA

[2] = biological target: T2, full-length GLI1, wild type, 35S-radiolabeled (human, UniProt P08151-1 1-1106, [35S]-methionine label); assay: as above; settings: one partner purified
T2 construct: human GLI1, full length (1,106 residues); the plasmid used for in vitro translation of full-length GLI1 is not described; also called full-length GLI1 protein; FL-GLI1; source: in vitro transcription/translation, partially purified by ammonium sulfate precipitation
T2 sequence (looked up): T1 sequence (looked up) with A122G, A123H

B1: GST-SUFU (fusion of GST to full-length human SUFU) (natural protein, UniProt Q9UMX1-1 1-484, looked up)
chain: MAELRPSGAPGPTAPPAPGPTAPPAFASLFPPGLHAIYGECRRLYPDQPNPLQVTAIVKYWLGGPDPLDYVSMYRNVGSPSANIPEHWHYISFGLSDLYGDNRVHEFTGTDGPSGFGFELTFRLKRETGESAPPTWPAELMQGLARYVFQSENTFCSGDHVSWHSPLDNSESRIQHMLLTEDPQMQPVQTPFGVVTFLQIVGVCTEELHSAQQWNGQGILELLRTVPIAGGPWLITDMRRGETIFEIDPHLQERVDKGIETDGSNLSGVSAKCAWDDLSRPPEDDEDSRSICIGTQPRRLSGKDTEQIRETLRRGLEINSKPVLPPINPQRQNGLAHDRAPSRKDSLESDSSTAIIPHELIRTRQLESVHLKFNQESGALIPLCLRGRLLHGRHFTYKSITGDMAITFVSTGVEGAFATEEHPYAAHGPWLQILLTEEFVEKMLEDLEDLTSPEEFKLPKEYSWPEKKLKVSILPDVVFDSPLH
notes: human SUFU, full length (residues 1-484), BamHI-SUFU-SalI cassette in pGEX-LB; pGEX-LB carries a Gly-Gly-Gly-Gly-Gly-Ser-Gly stretch between GST and the fused protein; also called full-length GST-SUFU; source: Escherichia coli, purified (glutathione-Sepharose); not shown: GST, N-terminal, kept
[1]
  Kd: 120 ± 35 nM
[2]
  Kd: 14 ± 4 nM
